Patent US20240317871A1 (IMMUNOMIC THERAPEUTICS, published 2024)

T1: human HVEM (human, UniProt Q92956 39-202, limits assumed)
T1 sequence (looked up): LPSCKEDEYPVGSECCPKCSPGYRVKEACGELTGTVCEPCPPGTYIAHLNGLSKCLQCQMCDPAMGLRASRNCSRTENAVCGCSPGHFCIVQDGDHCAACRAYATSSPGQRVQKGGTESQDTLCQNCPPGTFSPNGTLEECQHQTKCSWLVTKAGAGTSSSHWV

T2: murine HVEM (murine, UniProt Q80WM9 39-206, limits assumed)
T2 construct: also called Mouse
T2 sequence (looked up): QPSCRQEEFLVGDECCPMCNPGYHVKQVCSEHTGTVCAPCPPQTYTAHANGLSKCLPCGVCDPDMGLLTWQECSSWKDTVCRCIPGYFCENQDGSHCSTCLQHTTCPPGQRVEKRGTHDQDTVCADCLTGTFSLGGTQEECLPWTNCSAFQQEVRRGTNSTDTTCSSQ

T3: cynomolgus monkey HVEM (cynomolgus monkey, UniProt A0A2K5W0R1 39-203)
T3 sequence: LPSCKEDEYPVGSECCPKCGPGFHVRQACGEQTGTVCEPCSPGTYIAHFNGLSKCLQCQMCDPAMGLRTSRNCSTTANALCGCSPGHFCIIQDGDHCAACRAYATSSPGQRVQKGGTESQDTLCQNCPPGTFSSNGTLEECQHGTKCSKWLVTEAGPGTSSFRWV


Assays:
Experiment in all cases: ELISA
human HVEM = target: T1, human HVEM
murine HVEM = target: T2, murine HVEM
cynomolgus monkey HVEM = target: T3, cynomolgus monkey HVEM
Also: test concentration or dose not given here.

Row | ELISA signal (human HVEM) | ELISA signal (murine HVEM) | ELISA signal (cynomolgus monkey HVEM) | Binder
1 | 0.049 | 0.046 | 0.061 | Ab_085 (H5S20-53A41A) (antibody, V domains shown, also called Ab_85) VH: EVQLVESGGGLVKPGGSLKLSCAASGFTFSSYAMSWVRQSPEKRLEWVAEISSGGSYTYYPDTVTGRFTISRDNAKNTLYLEMSSLRSEDTAMYYCAREGLRRDYYALDYWGQGTSVTVSS VL: not shown
2 | 3.04 | 0.048 | 3.04 | Ab_075 (H5S20-12A10A) (antibody, V domains shown, also called Ab_75) VH: QIQLVQSGPELKKPGETVKISCKASGYTFTNFGMNWVRQAPGKGLKWMGWINTYTGEPTYADDFKGRFAFSLETSASTAYLQINNLKNDDMATYFCARSLYGNRDYWGQGTTLTVSS VL: QIVLTQSPAIMSASLGEEITLTCSASSSVSYMHWYQQRSGTSPKLLIYSTSNLASGVPSRFSGSGSGTFYSLTISSVEAEDAADYYCHQWSSYRTFGGGTKLEIK
3 | 2.95 | 0.045 | 2.98 | Ab_062 (H5S19-16A18A) (antibody, V domains shown, also called Ab_62) VH: QIQLVQSGPELKKPGETVKISCKASGYTFTNFGVNWVKQAPGKGLKWMGWINTYTGEPTYADDFKGRFAFSLETSASTAYLQINNLKNEDTATYFCVRSYYGNSGYWGQGTTLTVSS VL: QIVLTQSPAIMSTSPGEKVTLTCSASSSVSSSYLYWYQQKPGSSPKLWIYSTSNLASGVPARFSGSGSGTSYSLTISSMEAEDAASYFCHQWSTYPWTFGGGTKLEIK
4 | 3.09 | 0.044 | 3.03 | Ab_060 (H5S19-8A16A) (antibody, V domains shown, also called Ab_60) VH: QIQLVQSGPELKKPGETVKISCKASGYTFTNFGVNWVKQAPGKGLKWMGWINTYTGEPTYADDFKGRFAFSLETSASTAYLRINNLKNEDTASYFCARSYYANNAYWGQGTTLTVSS VL: QIVLTQSPAIMSASPGEKVTLTCSASSSVDSSYLYWFQQKPGSSPKLWIYGTSNLASGVPARFSGSGSGTSYSLTISSMEAEDAASYFCHQWNSYPWTFGGGTKLEIK
5 | 2.5 | 0.044 | 0.826 | Ab_048 (H5S19-24A22A) (antibody, V domains shown, also called Ab_48) VH: QVQLQQSGGELLRPGTSVKVSCKASGYAFTNYLIEWVKQRPGQGLEWIGVINPGSGGIYYKEKFKDKAILTADKSSSTAYMQLSSLTSDDSAVYFCARGDAMDFWGQGTSVTVSS VL: DAVMTQTPLSLTVSLGDQASISCRSSQTLENTNGNTYLNWYLQKPGQSPQLLIYRVSNRFSGVLDRFSGSGSGTDFTLKISRVEAEDLGVYFCLQVTHVPYTFGGGTKLEIK
6 | 2.89 | 0.044 | 2.96 | Ab_076 (H5S20-26A22A) (antibody, V domains shown, also called Ab_76) VH: QIQLVQSGPELKKPGETVKISCRASGYTFTNYGMNWVKQAPGKGLKWMGWINTYTGEPTYADDFKGRFAFSLETSASSAYLQINNLKNEDMATYFCARSLYYGDNYEAYWGQGTLVTVSA VL: QIVLTQSPAIMSASLGEEITLTCSASSSVSYMHWYQQKSGSSPKLLIYTTSNLASGVPSRFSGSGSGTFYSLTISSVEAEDAADYYCHQWSSYTWTFGGGTKLEIK
7 | 1.19 | 0.051 | 0.743 | Ab_047 (H5S15-36A32A) (antibody, V domains shown, also called Ab_47) VH: EVQLQQSGAELVKPGASVKLSCTASGFNIKDTYMHWVKQRPEQGLEWIGRIDPANGNTKYDPKFQGKATITADTSSNTAYLQLSSLTSEDTAVYYCARPYGNYGFAYWGQGTLVTVSA VL: DIQMTQSPASLSASVGETVTITCRASGNIHNYLAWYQQKQGKSPQLLVYNAKTLADGVPSRFSGSGSGTQYSLKINSLQPEDFGSYYCQHFWSTFTFGSGTKLEIK
8 | 1.59 | 0.048 | 0.076 | Ab_081 (H5S20-44A32A) (antibody, V domains shown, also called Ab_81) VH: EVKLVESGGGLVQPGGSLKLSCAASGFTFSSYTMSWVRQTPEKRLEWVAYISNGGGSTYYPDTVKGRFTISRDNAKNTLYLQMSSLKSEDTAMYYCARHRGYGSSYNYAMDYWGQGTSVTVSS VL: DIVMTQSQKFMSTSVGDRVSVTCKASQNVGTNVAWYQQKPGQSPKALIYSASYRYSGVPDRFTGSGSGTDFTLTISNVQSEDLAEYFCQQYNSYPFTFGSGTKLEIK
9 | 0.844 | 0.044 | 0.06 | Ab_082 (H5S20-55A36A) (antibody, V domains shown, also called Ab_82) VH: EVKLVESGGGLVQPGGSLKLSCAASGFTFSSYTMSWVRQTPEKRLEWVADISNGGGSTYYPDTVKGRFTISRDNAKNTLYLQMSSLKSEDTAMYYCARHRGYGNYVYAMDYWGQGTSVTVSS VL: DIVMTQSQKFMSTSVGDRVSVTCKASQNVGTNVAWYQQKPGQSPKALIYSASYRYSGVPDRFTGSGSGTDFTLTISNVQSEDLAEYFCQQYNSYPLTFGGGTKLEIK
10 | 0.049 | 0.046 | 0.062 | Ab_042 (H5S15-28A23A) (antibody, V domains shown, also called Ab_42) VH: QVQLQQSGAELVKPGASVKMSCKAFGYTFTTYPIEWMKQNHGKSLEWIGNFHPYNDDTKYNEKFKGKAKLTVEKSSSTVYLELSRLTSDDSAVYYCARGGFAYWGQGTLVTVSA VL: DVVMTQTPLSLPVSLGDQASISCRSSQSLVHSNGNTYLHWYLQKPGQSPKLLIYKVSNRFSGVPDRFSGSGSGTDFTLKISRVEAEDLGVYFCSQSTHVPFTFGSGTKLEIK

More lines, now with the values behind:

Row | Binder | ELISA signal (human HVEM) | ELISA signal (murine HVEM) | ELISA signal (cynomolgus monkey HVEM)
11 | Ab_038 (H5S15-19A18A) (antibody, V domains shown, also called Ab_38) VH: QVQLKESGPGLVAPSQSLSITCTVSGFSLTGYGVNWVRQPPGKGLEWLGMIWGDGGTDYNSALKSRLSISKDNSKSQVFLKMNSLQTDDTARYYCARDNYHTVVNGDYWGQGTSVTVSS VL: ENVLTQSPAIMSASPGEKVTMTCRASSSVSSSYLHWYQQKSGASPKLWIYSTSNLASGVPARFSGSGSGTSYSLTISSVEAEDAATYYCQQYSGYPLTFGGGTKLEIK | 0.049 | 0.043 | 0.06
12 | Ab_037 (H5S15-13A15A) (antibody, V domains shown, also called Ab_37) VH: QVQLKQSGPGLVQPSQSLSITCTVSGFSLTSYGVHWVRQSPGKGLEWLGVIWRGGSTDYNAAFMSRLSITKDNSKSQVFFKMNSLQADDTAIYYCAKTGFAYWGQGTLVTVSA VL: QIVLTQSPAIMSASPGEKVTMTCSASSSVSYMHWYQQKSGTSPKRWIYDTSKLASGVPARFSGSGSGTSYSLTISSMEAEDAATYYCQQWSSNPLTFGAGTKLELK | 0.059 | 0.043 | 0.06
13 | Ab_039 (H5S15-21A19A) (antibody, V domains shown, also called Ab_39) VH: QIQLVQSGPDLKKPGETVKISCKASGYTFTNYGMNWVKQAPGKDLKWMGWINTYTGEPTYADDFKGRFAFSLETSASTAYLQINNLKNDDTATYFCARSINYDSDEKWGQGTSVTVSS VL: QIVLTQSPAIMSASLGERVTLTCTASSSVSSSYLHWYQQKPGSSPKLWIYDTSNLASGVPARFSGSGSGTSYSLTISSMEAEDAATYYCHQYHRSQWTFGGGTKLEIK | 2.87 | 0.042 | 3.03
14 | Ab_061 (H5S19-13A16B) (antibody, V domains shown, also called Ab_61) VH: QIQLVQSGPELKKPGETVKISCKASGYTFTNFGVNWVKQAPGKGLKWMGWINTYTGEPTYADDFKGRFAFSLETSASTAYLRINNLKNEDTATYFCARSYYANYAYWGQGTTLTVSS VL: QIVLTQSPAIMSASPGEKVTLTCSASSSVDSSYLYWYQQKPGSSPKLWIYGTSNLASGVPARFSGSGSGTSYSLTISSMEAEDAASYFCHQWNSYPWTFGGGTKLEIK | 2.98 | 0.043 | 3.03
15 | Ab_024 (H5S15-1A1A) (antibody, V domains shown, also called Ab_24) VH: EVQLQQSGAELVKPGASVKLSCTASGFNIKDTYMHWVKQRPEQGLAWIGRIAPANGYTKYDPKFQGKATITTDTSSNTAYLHLSRLTSEDTAVYYCANYFGNTYDWFAFWGQGTLVTVSA VL: ENVLTQSPAIMSASPGEKVTMTCSAGSSVSYMHWYQQKSSTSPKLWIYDTSKLPSGVPGRFSGSGSGNSYSLTISSMEAEDVATYYCFQGSGFPLTFGSGTKLEIK | 0.048 | 0.044 | 0.063
16 | Ab_041 (H5S15-27A22A) (antibody, V domains shown, also called Ab_41) VH: EVQLQQSGAELVKPGASVKLSCTASGFNIKDTYMHWVKQRPEQGLEWIGRIDPANGNTKYDPKFQGKATITADTSSNTAYLQLSSLTSEDTAVYYCARSRRYFDVWGAGTTVTVSS VL: not shown | 0.059 | 0.045 | 0.076
17 | Ab_040 (H5S15-23A21A) (antibody, V domains shown, also called Ab_40) VH: EVQLQQSGTVLARPGASVKMSCKASGYTFTSFWMHWVKQRPGQGLEWIGAISPGNSETTYNQKFTGKAKLTAVTSTSTAYMELSSLTNEDSAVYYCTKIYYDYDDGYWGQGTTLTVSS VL: not shown | 0.069 | 0.05 | 0.098
18 | Ab_032 (H5S15-7A8A) (antibody, V domains shown, also called Ab_32) VH: QIQLVQSGPELKKPGETVKISCKASGYTFTNYGMNWVKQAPGKGLKWVGWINTYTGEPTYAEDFKGRFAFSLETSASTAYLQINNLKNEDMATYFCARSFYGSEAYWGQGTLVTVSA VL: QIVLTQSPAIMSASLGEEITLTCSASSSVSFMHWYQQKSGTSPKLLIYSTSNLASGVPSRFSGSGSGTFYSLTISSVEAEDAADYYCHQWSSYLWTFGGGAKLEIK | 3.04 | 0.045 | 2.87
19 | Ab_033 (H5S15-7B8A) (antibody, V domains shown, also called Ab_33) VH: QIQLVQSGPELKKPGETVKISCKASGYTFTNYGMNWVKQAPGKGLKWVGWINTYTGEPTYADDFKGRFAFSLETSASTAYLQINNLKNEDMATYFCARSFYGSEAYWGQGTLVTVSA VL: QIVLTQSPAIMSASLGEEITLTCSASSSVSFMHWYQQKSGTSPKLLIYSTSNLASGVPSRFSGSGSGTFYSLTISSVEAEDAADYYCHQWSSYLWTFGGGAKLEIK | 3.1 | 0.043 | 3.02
